{
  "source": "paper PMC3327772",
  "biological_target": "IAEDANS labeled sarcoplasmic reticulum Ca-ATPase (SERCA) (rabbit (purified from rabbit skeletal muscle)) (UniProt P04191)",
  "assay": "FRET or BRET",
  "data": [
    {"substance": "Dabcyl labeled monomeric AFA-PLB mutant (C36A/C41F/C46A) of phospholamban (peptide)", "values": [
      {"measurement": "Xb (fraction of SERCA bound to PLB) (mole fraction)", "result": 0.82}
    ]}
  ]
}
